# Experimental data: patent US20160160263
# How the values were obtained:
# [1] = test system: SNPYG-Y (SEQ ID NO: 23), MMP9 selective substrate
# [2] = test system: SNPYK-Y (SEQ ID NO: 21), MMP9 selective substrate
# [3] = test system: TIAH/LH, MMP2 selective substrate
# [4] = test system: RS-Q-G-(homoF)-YLY (SEQ ID NO: 71)
# [5] = test system: T1, YGRAAA (SEQ ID NO: 17), uPA selective substrate
# T1 sequence: YGRAAA
# Sequence of MMP-9 (chain, as listed by the source): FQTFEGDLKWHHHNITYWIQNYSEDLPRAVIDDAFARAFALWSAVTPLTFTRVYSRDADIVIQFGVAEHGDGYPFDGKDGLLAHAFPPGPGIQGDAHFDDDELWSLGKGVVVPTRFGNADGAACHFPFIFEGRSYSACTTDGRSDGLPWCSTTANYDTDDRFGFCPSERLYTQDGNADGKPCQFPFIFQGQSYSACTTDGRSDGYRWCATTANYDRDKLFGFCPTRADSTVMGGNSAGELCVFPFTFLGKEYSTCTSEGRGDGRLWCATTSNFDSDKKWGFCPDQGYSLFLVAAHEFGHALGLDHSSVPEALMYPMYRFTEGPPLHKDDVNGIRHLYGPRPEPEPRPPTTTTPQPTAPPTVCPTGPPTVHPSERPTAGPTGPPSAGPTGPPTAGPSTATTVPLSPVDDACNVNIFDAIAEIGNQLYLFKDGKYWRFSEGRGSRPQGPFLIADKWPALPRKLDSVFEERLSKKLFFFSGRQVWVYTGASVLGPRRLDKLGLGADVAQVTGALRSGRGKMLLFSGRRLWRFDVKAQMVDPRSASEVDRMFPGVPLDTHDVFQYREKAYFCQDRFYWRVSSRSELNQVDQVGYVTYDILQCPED
substance,measurement,setting,value
MMP-9,cleavage of ACPP substrate by protease (FAM/Cy5 ratiometric RACPP),[1],MMP9 selective substrates
same,cleavage of ACPP substrate by protease (FAM/Cy5 ratiometric RACPP),[2],MMP9 selective substrates
same,cleavage of ACPP substrate by protease,[3],selectively cleaved by MMP-2 versus 9 and 14
MT2-MMP,cleavage of substrate by protease,[4],Only RS-Q-G-(homoF)-YLY (SEQ ID NO: 71) shows significant cleavage by MT2-MMP
urokinase plasminogen activator (uPA),cleavage of ACPP substrate by protease,[5],efficiently cleaved by uPA
